Square brackets hold non-standard residues; d marks the D form. Peptide text beside a SMILES is read from it. * marks the point of attachment. X3 = O=C(CCCCCNCc1nc2c(sc3cc(Br)cnc32)c(=O)[nH]1)*
What was measured:
Assay in all cases: Kinase profiling (radiometric filter-binding)
Type in all cases: biochemical
[1] = biological target: T1, BRSK1 (Homo sapiens, UniProt Q8TDC3); conditions: BRSK1, 1 µM inhibitor; read-out: Residual activity, %
T1 sequence (Q8TDC3 1-778): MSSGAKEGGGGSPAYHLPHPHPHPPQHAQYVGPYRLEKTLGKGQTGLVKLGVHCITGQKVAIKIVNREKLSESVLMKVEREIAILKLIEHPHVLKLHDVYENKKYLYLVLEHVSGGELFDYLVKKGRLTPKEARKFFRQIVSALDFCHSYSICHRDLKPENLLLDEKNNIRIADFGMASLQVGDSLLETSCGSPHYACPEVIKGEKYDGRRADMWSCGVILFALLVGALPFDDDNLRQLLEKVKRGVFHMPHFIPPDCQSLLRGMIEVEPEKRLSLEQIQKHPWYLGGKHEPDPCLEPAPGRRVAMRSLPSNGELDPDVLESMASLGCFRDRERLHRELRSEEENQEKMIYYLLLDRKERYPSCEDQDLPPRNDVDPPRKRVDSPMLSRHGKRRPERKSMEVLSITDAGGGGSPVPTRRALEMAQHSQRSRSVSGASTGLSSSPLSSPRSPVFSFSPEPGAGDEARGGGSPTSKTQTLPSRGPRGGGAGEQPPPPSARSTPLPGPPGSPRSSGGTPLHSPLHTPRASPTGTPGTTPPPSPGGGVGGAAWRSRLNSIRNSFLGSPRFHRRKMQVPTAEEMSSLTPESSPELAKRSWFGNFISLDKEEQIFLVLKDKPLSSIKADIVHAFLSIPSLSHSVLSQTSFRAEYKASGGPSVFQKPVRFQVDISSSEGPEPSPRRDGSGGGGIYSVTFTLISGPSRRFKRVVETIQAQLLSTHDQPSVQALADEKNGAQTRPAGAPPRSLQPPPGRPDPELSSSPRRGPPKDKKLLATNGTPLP
Outline: (§1)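 Percent activity retained relative to the no-inhibitor reaction is given. Assays used human enzymes, radiolabel filter capture, ATP concentrations not exceeding the respective KM, and a final inhibitor level of 1 µM.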

[2] = biological target: JNK3 (Homo sapiens, UniProt P53779); conditions: JNK3, 1 µM inhibitor; read-out: Residual activity, %
Sequence of JNK3 (P53779 whole entry): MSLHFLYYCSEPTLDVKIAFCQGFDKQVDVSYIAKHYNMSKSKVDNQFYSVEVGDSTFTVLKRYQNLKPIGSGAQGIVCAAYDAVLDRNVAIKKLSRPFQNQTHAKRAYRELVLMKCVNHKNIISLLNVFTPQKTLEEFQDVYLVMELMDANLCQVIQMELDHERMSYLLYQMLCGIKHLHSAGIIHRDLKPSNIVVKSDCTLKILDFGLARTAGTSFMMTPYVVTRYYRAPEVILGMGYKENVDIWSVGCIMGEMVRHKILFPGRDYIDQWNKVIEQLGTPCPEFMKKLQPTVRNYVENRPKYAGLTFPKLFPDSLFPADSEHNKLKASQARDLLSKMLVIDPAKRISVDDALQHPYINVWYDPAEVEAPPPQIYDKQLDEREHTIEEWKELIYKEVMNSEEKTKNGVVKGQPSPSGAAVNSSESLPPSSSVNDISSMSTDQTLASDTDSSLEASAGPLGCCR
Outline: as §1

[3] = biological target: T2, LKB1 (Homo sapiens, UniProt Q15831); conditions: LKB1, 1 µM inhibitor; read-out: Residual activity, %
T2 sequence (Q15831 1-433): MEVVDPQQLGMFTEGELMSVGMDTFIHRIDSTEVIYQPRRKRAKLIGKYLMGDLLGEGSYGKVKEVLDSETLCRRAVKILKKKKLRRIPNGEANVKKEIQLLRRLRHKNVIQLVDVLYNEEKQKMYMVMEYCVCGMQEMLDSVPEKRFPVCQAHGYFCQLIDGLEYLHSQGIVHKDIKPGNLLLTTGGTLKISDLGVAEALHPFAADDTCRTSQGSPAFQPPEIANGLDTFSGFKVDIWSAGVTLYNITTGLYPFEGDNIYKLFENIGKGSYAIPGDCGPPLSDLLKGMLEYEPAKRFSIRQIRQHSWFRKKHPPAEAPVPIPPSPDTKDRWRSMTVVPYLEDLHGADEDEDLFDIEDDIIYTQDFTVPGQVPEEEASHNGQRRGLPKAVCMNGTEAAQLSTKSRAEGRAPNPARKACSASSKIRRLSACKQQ
T2 sequence (Q7RTN6 1-431 partner): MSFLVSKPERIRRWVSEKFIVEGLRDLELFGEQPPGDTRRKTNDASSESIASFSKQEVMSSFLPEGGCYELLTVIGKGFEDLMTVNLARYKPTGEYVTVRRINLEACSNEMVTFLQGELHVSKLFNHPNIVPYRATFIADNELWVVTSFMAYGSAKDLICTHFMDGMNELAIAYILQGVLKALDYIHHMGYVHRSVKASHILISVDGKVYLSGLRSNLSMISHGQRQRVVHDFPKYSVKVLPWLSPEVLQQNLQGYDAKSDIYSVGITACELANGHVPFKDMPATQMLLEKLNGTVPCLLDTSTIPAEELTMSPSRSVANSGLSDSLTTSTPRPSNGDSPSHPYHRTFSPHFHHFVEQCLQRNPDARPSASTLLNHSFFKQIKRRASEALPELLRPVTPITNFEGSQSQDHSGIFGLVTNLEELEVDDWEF
T2 sequence (Q9Y376 1-341 partner): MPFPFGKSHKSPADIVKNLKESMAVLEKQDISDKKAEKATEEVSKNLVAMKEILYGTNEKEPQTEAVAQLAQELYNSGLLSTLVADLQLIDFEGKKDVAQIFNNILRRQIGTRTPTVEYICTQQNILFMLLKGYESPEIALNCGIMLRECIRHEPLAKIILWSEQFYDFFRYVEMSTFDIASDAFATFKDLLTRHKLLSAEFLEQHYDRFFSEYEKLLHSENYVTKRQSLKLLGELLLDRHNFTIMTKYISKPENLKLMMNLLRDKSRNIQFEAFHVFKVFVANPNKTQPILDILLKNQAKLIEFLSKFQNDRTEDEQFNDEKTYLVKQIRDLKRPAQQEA
Outline: as §1

[4] = biological target: PAK6 (Homo sapiens, UniProt Q9NQU5); conditions: PAK6, 1 µM inhibitor; read-out: Residual activity, %
Sequence of PAK6 (Q9NQU5 whole entry): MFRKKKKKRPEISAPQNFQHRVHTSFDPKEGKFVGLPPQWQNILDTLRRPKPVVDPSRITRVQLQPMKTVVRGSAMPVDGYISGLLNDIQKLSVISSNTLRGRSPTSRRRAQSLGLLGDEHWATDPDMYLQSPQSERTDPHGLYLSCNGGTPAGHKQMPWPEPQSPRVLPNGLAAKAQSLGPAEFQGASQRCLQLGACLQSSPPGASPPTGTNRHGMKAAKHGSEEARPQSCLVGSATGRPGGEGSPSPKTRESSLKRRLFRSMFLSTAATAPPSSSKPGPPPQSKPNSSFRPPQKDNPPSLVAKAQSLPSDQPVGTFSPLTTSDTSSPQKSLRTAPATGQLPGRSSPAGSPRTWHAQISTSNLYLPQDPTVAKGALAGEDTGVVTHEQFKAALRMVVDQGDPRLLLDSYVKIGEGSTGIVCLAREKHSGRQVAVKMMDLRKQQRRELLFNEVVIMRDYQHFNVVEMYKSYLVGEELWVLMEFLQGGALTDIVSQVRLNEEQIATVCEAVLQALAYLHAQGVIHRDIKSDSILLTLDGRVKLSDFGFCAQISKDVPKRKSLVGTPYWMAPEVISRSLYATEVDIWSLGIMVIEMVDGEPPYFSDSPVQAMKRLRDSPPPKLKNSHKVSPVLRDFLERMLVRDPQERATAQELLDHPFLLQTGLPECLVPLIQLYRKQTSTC
Outline: as §1

[5] = biological target: PKB (Homo sapiens, UniProt P31749); conditions: first of two PKB lines (Greek letter lost), 1 µM inhibitor, read-out: Residual activity, %
Sequence of PKB (P31749 whole entry): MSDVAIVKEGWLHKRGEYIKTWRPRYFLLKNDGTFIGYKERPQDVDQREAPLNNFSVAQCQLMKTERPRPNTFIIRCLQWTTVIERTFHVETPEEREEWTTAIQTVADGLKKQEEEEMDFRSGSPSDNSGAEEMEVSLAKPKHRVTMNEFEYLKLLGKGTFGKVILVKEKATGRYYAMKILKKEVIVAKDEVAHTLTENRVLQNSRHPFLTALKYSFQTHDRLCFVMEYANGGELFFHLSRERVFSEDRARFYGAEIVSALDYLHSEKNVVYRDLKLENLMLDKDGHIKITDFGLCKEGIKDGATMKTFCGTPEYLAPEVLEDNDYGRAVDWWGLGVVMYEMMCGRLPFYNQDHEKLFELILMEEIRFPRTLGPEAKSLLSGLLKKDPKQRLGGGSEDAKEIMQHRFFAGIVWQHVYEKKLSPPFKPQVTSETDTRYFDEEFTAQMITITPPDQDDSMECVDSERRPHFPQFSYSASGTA
Outline: as §1

[6] = biological target: S6K1 (Homo sapiens, UniProt P23443); conditions: S6K1, 1 µM inhibitor; read-out: Residual activity, %
Sequence of S6K1 (P23443 whole entry): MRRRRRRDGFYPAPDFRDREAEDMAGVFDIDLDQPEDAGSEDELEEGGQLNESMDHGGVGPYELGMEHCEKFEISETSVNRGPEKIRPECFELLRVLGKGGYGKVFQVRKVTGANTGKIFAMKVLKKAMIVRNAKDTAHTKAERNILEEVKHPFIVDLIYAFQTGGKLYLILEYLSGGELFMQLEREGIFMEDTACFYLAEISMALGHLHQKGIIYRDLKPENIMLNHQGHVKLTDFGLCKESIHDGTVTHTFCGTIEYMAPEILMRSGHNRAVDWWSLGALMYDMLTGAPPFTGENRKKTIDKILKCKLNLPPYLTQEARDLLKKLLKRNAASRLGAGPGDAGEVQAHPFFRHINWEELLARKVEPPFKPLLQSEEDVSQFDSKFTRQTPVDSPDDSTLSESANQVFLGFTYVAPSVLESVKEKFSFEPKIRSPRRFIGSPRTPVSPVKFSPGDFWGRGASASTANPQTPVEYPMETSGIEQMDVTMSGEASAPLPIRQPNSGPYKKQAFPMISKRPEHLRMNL
Outline: as §1

[7] = biological target: Src (Homo sapiens, UniProt P12931); conditions: 1 µM inhibitor, read-out: Residual activity, %
Sequence of Src (P12931 whole entry): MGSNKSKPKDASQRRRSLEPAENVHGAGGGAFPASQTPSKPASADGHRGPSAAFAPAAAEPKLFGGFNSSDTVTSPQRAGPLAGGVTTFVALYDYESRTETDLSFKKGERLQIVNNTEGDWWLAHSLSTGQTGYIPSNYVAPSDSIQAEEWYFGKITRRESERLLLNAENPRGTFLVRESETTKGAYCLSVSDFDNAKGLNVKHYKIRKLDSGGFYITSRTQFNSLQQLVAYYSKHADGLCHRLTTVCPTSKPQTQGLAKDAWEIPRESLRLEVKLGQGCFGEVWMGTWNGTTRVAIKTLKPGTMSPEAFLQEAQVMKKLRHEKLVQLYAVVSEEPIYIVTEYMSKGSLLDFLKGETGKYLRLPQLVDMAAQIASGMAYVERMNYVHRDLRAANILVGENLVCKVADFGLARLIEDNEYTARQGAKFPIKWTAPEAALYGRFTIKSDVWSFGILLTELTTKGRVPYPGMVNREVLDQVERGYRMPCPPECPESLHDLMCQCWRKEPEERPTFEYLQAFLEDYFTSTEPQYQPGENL
Outline: as §1

[8] = biological target: T3, TAK1 (Homo sapiens, UniProt O43318); conditions: TAK1, 1 µM inhibitor; read-out: Residual activity, %
T3 sequence (O43318 1-303 limits assumed): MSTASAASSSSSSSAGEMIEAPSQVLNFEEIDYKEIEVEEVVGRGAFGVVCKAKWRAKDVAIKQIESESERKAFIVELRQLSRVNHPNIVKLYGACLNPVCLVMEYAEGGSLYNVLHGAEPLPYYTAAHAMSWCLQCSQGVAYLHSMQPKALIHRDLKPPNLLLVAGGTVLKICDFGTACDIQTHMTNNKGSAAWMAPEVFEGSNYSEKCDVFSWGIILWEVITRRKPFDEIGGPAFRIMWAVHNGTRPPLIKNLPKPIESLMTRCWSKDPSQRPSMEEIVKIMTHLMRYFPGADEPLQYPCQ
Outline: as §1

SMILES | remaining activity at 1 µM [1] | remaining activity at 1 µM [2] | remaining activity at 1 µM [3] | remaining activity at 1 µM [4] | remaining activity at 1 µM [5] | remaining activity at 1 µM [6] | remaining activity at 1 µM [7] | remaining activity at 1 µM [8]
N=C(N)NCCC[C@@H](NC(=O)CCCCCNC(=O)Cn1cnc2c(I)c(I)c(I)c(I)c21)C(=O)N[C@H](CCCNC(=N)N)C(=O)N[C@H](CCCNC(=N)N)C(=O)N[C@H](CCCNC(=N)N)C(=O)N[C@H](CCCNC(=N)N)C(=O)N[C@H](CCCNC(=N)N)C(=O)N[C@H](CCCCN)C(N)=O [ARC-3125, TIBI-CH2-C(=O)-Ahx-(D-Arg)6-D-Lys-NH2] | 84 ± 2% | 120 ± 2% | 49 ± 28% | 34 ± 11% | -1 ± 1% | 13% | 153 ± 22% | 9 ± 4%
N=C(N)NCCC[C@@H](NC(=O)CCCCCNCc1nc2c(sc3cc(Br)cnc32)c(=O)[nH]1)C(=O)N[C@H](CCCNC(=N)N)C(=O)N[C@H](CCCNC(=N)N)C(=O)N[C@H](CCCNC(=N)N)C(=O)N[C@H](CCCNC(=N)N)C(=O)N[C@H](CCCNC(=N)N)C(=O)N[C@H](CCCCN)C(N)=O [ARC-3126, BPTP-Ahx-(D-Arg)6-D-Lys-NH2] (X3-[dR][dR][dR][dR][dR][dR][dK]-NH2) | 50 ± 10% | 121 ± 5% | 114 ± 11% | 103 ± 5% | 80 ± 4% | 75 ± 2% | 103 ± 2% | 88 ± 17%
N=C(N)NCCC[C@@H](NC(=O)CNC(=O)[C@@H](CCCNC(=N)N)NC(=O)[C@@H](CCCNC(=N)N)NC(=O)CCCCCCCNCc1nc2c(sc3cc(Br)cnc32)c(=O)[nH]1)C(=O)N[C@H](CCCCN)C(N)=O [Compound 1, BPTP-Aoc-(D-Arg)2-Gly-D-Arg-D-Lys-NH2] | 107 ± 5% | 92% | 107 ± 1% | 119 ± 8% | 101 ± 6% | 98 ± 2% | 97 ± 3% | 107 ± 3%
N=C(N)NCCC[C@@H](NC(=O)CNC(=O)[C@@H](CCCNC(=N)N)NC(=O)[C@@H](CCCNC(=N)N)NC(=O)CCCCCCCNCc1nc2c(sc3ccc(Br)cc32)c(=O)[nH]1)C(=O)N[C@H](CCCCN)C(N)=O [Compound 2, BBTP-Aoc-(D-Arg)2-Gly-D-Arg-D-Lys-NH2] | 101% | 108 ± 3% | 118 ± 4% | 110 ± 15% | 67 ± 7% | 85 ± 1% | 110 ± 12% | 101 ± 1%
N=C(N)NCCC[C@@H](NC(=O)CNC(=O)[C@@H](CCCNC(=N)N)NC(=O)[C@@H](CCCNC(=N)N)NC(=O)Cn1cc(CNCc2nc3c(sc4ccc(Br)cc43)c(=O)[nH]2)nn1)C(=O)N[C@H](CCCCN)C(N)=O [Compound 3, BBTP-Amt-(D-Arg)2-Gly-D-Arg-D-Lys-NH2] | 90 ± 11% | 113 ± 22% | 115 ± 13% | 86 ± 8% | 72 ± 12% | 55 ± 6% | 119 ± 1% | 99 ± 10%

— publication PMC8307404, “Crystal Structure-Guided Design of Bisubstrate Inhibitors and Photoluminescent Probes for Protein Kinases of the PIM Family” (Molecules, 2021)
